The supplement of paper PMC7125110
± gives the standard error. For some assays here: Variants at the floor of the assay were thinned out.

B1: glmS ribozyme (parent)
chain: AUAAAAGCGCCAGAACUACAGAAAUGUAGUUGACGAGGAGGAGGUUUAUCGAAUUUUCGGCGGAUGCCUCCAAA

Assays:
Conditions in all cases: with glucosamine-6-phosphate
glucosamine-6-phosphate [1] = variants of: B1; assay: kcat; higher = faster cleavage; RNA array
Method in brief: (§1)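 The measurements used barcoded ribozyme variants on sequenced MiSeq chips, transcribed in situ by E. coli RNA polymerase and tracked at 37 °C with a hybridised Cy3 probe. Glucosamine-6-phosphate, 40 μM to 10 mM in HEPES/KCl/Mg(OAc)2 buffer, was flowed in while tiles were imaged over ~14 h. Baseline-normalised signals, also normalised to non-cleaving reference variants, gave per-tile medians that were fit to one- or two-exponential decays for kobs. kcat and KM resulted from weighted Michaelis–Menten fits across concentrations.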

glucosamine-6-phosphate [2] = variants of: B1; assay: self-cleavage kobs at 640 uM GlcN6P; higher = faster cleavage; RNA array
Method in brief: as §1

glucosamine-6-phosphate [3] = variants of: B1; assay: self-cleavage kobs at 2500 uM GlcN6P; higher = faster cleavage; RNA array
Method in brief: as §1

glucosamine-6-phosphate [4] = variants of: B1; assay: self-cleavage kobs at 10000 uM GlcN6P; higher = faster cleavage; RNA array
Method in brief: as §1

glucosamine-6-phosphate [5] = variants of: B1; assay: self-cleavage kobs at 40 uM GlcN6P; higher = faster cleavage; RNA array
Method in brief: as §1

glucosamine-6-phosphate [6] = variants of: B1; assay: KM; higher = weaker cofactor use; RNA array
Method in brief: as §1

glucosamine-6-phosphate [7] = variants of: B1; assay: self-cleavage kobs at 160 uM GlcN6P; higher = faster cleavage; RNA array
Method in brief: as §1

| Variant | kcat (glucosamine-6-phosphate [1]) [s⁻¹] | self-cleavage kobs at 640 uM GlcN6P (glucosamine-6-phosphate [2]) [s⁻¹] | self-cleavage kobs at 2500 uM GlcN6P (glucosamine-6-phosphate [3]) [s⁻¹] | self-cleavage kobs at 10000 uM GlcN6P (glucosamine-6-phosphate [4]) [s⁻¹] | self-cleavage kobs at 40 uM GlcN6P (glucosamine-6-phosphate [5]) [s⁻¹] | KM (glucosamine-6-phosphate [6]) [µM] | self-cleavage kobs at 160 uM GlcN6P (glucosamine-6-phosphate [7]) [s⁻¹] |
| --- | --- | --- | --- | --- | --- | --- | --- |
| A33C A53U | 0.000206 ± 3.2e-05 | 7.53e-05 ± 1.6e-05 | 0.000246 ± 5.8e-05 | 0.000182 ± 1.9e-05 |  |  |  |
| U56A C61G | < 1e-05 |  |  |  |  |  |  |
| A33U U69A | 2.24e-05 ± 3e-06 |  |  |  | < 1e-05 |  |  |
| U56C U65G | 0.000503 ± 9.7e-05 |  | 0.000206 ± 7.7e-05 | 0.00041 ± 8.6e-05 |  |  |  |
| G66C C71U | 0.000716 ± 9.4e-05 | 0.000335 ± 5e-05 | 0.000494 ± 9.6e-05 | 0.000631 ± 0.00011 |  | 975 ± 220 | 9.54e-05 ± 1.7e-05 |
| C11U G41A | 8.97e-05 ± 1e-05 | 3.01e-05 ± 1.2e-05 | 8.81e-05 ± 1.8e-05 | 7.91e-05 ± 8.6e-06 |  |  |  |
| U65A C67G | 0.000463 ± 7.8e-05 | 0.000173 ± 2.2e-05 | 0.000422 ± 6.2e-05 | 0.000386 ± 6.4e-05 | 2.9e-05 ± 8.7e-06 | 958 ± 270 | 6.44e-05 ± 9.1e-06 |
| C16G G37A | 0.000832 ± 0.00041 | 3.76e-05 ± 1.2e-05 | 0.000292 ± 6.6e-05 | 0.000396 ± 4.9e-05 |  |  |  |
| U47G U57C | 0.000206 ± 2.4e-05 |  | 5.65e-05 ± 1.2e-05 | 0.000126 ± 1.3e-05 |  | 6430 ± 1500 |  |
| A15U U54G | 0.00446 ± 0.00053 | 0.00189 ± 0.00075 | 0.00279 ± 0.00048 | 0.00368 ± 0.0005 | 8.2e-05 ± 2.2e-05 | 1730 ± 330 | 0.000411 ± 6.8e-05 |
| U55C C67A | 0.000193 ± 6.1e-05 | 0.000133 ± 2.3e-05 | 0.000137 ± 2.4e-05 | 0.00029 ± 5.7e-05 |  |  |  |
| U55C C71G | 0.000144 ± 9.8e-06 | 3.46e-05 ± 9.7e-06 | 8.92e-05 ± 1.3e-05 | 0.000118 ± 1.9e-05 |  | 1810 ± 300 |  |
| C16U C67G C68U | 6.15e-05 ± 1.2e-05 | 7.27e-05 ± 2.2e-05 | 6.31e-05 ± 2.8e-05 | 5.02e-05 ± 1.9e-05 |  |  |  |
| C50G U69C | 0.000107 ± 2.1e-05 | 9.95e-05 ± 1.7e-05 | 0.000193 ± 3.4e-05 | 9.16e-05 ± 1.9e-05 | 0.000118 ± 3.6e-05 |  | 9.81e-05 ± 2.6e-05 |
| U30C A33U | 1.74e-05 ± 7.2e-07 |  |  |  |  | 944 ± 280 |  |
| C16G G41C | 2.59e-05 ± 7.1e-06 |  |  |  | < 1e-05 |  | < 1e-05 |

| Variant | kcat (glucosamine-6-phosphate [1]) [s⁻¹] | self-cleavage kobs at 640 uM GlcN6P (glucosamine-6-phosphate [2]) [s⁻¹] | self-cleavage kobs at 2500 uM GlcN6P (glucosamine-6-phosphate [3]) [s⁻¹] | self-cleavage kobs at 10000 uM GlcN6P (glucosamine-6-phosphate [4]) [s⁻¹] | self-cleavage kobs at 40 uM GlcN6P (glucosamine-6-phosphate [5]) [s⁻¹] | KM (glucosamine-6-phosphate [6]) [µM] | self-cleavage kobs at 160 uM GlcN6P (glucosamine-6-phosphate [7]) [s⁻¹] |
| --- | --- | --- | --- | --- | --- | --- | --- |
| A15G A53U | 0.0369 ± 0.0054 | 0.00647 ± 0.002 | 0.0176 ± 0.0065 | 0.0306 ± 0.0073 | 0.000575 ± 0.00011 | 2500 ± 470 | 0.0027 ± 0.00073 |
| A15C U47C C71U | 0.000301 ± 5.9e-06 | 0.000129 ± 2.7e-05 | 0.000228 ± 4.9e-05 | 0.000275 ± 4.5e-05 |  | 867 ± 47 |  |
| U69C C70A | 5.97e-05 ± 1.3e-05 | 7.51e-05 ± 2e-05 | 4.46e-05 ± 2.2e-05 | 5.64e-05 ± 1.2e-05 |  |  |  |
| G66U | 0.00275 ± 0.00056 | 0.00057 ± 1.2e-05 | 0.00179 ± 6.8e-05 | 0.00225 ± 6.3e-05 | 5.79e-05 ± 1.2e-06 | 2210 ± 580 | 0.000159 ± 5.1e-06 |
| G66C | 0.000832 ± 7.4e-05 | 0.000244 ± 6.2e-06 | 0.000709 ± 3.8e-05 | 0.000712 ± 1.8e-05 | 2.55e-05 ± 1.8e-06 | 1470 ± 210 | 8.08e-05 ± 2.4e-06 |
| G32A C58A | 0.00126 ± 0.00024 | 0.000201 ± 2.2e-05 | 0.000498 ± 5.6e-05 | 0.00106 ± 0.00016 |  | 3330 ± 920 | 7.42e-05 ± 1.4e-05 |
| A53G C58G | 0.000112 ± 2.4e-06 | 3.28e-05 ± 1.1e-05 | 6.79e-05 ± 1.2e-05 | 9.67e-05 ± 9.9e-06 |  | 1580 ± 120 |  |
| U47C C68A | 3.98e-05 ± 6.2e-06 |  | 4.92e-05 ± 1.8e-05 | 3.44e-05 ± 1.2e-05 |  |  |  |
| U47G A48U | 0.000199 ± 1.8e-05 | 8.89e-05 ± 1.5e-05 | 0.000128 ± 2e-05 | 0.000196 ± 2.4e-05 |  | 905 ± 230 | 3.01e-05 ± 1.4e-05 |
| U46C A53U U65G | 0.000127 ± 3.1e-05 |  | 3.28e-05 ± 1.2e-05 | 7.63e-05 ± 2.5e-05 |  | 6880 ± 2800 |  |
| C34U G60A | < 1e-05 | < 1e-05 |  | < 1e-05 |  |  |  |
| A15U U69C | 0.000652 ± 0.00018 | 0.000203 ± 2.7e-05 | 0.000443 ± 7.7e-05 | 0.000677 ± 0.00011 | 5.12e-05 ± 1.2e-05 | 1120 ± 510 | 8.72e-05 ± 1.3e-05 |
| U46A C67A | 0.00257 ± 0.00048 | 0.000988 ± 0.0002 | 0.00266 ± 0.00097 | 0.00209 ± 0.0006 | 8.65e-05 ± 2.9e-05 | 1060 ± 330 |  |
| A14U G43A | 4.42e-05 ± 1.9e-05 |  |  |  |  |  |  |
| C10U U56C | 2.01e-05 ± 2.1e-06 |  |  |  | < 1e-05 |  |  |
| U45G G66U | 0.0036 ± 0.00029 | 0.00042 ± 7.6e-05 | 0.0014 ± 0.00027 | 0.00245 ± 0.00032 | 3.62e-05 ± 1.2e-05 | 4540 ± 530 | 0.00012 ± 2.8e-05 |
